Test results reported in patent US20160083712A1.

Target: CSN5 WT, soluble MPN domain construct of Example 2 (Homo sapiens)
Assay: ITC

Chain of CSN5 WT, soluble MPN domain construct of Example 2 (Homo sapiens) (O35864 1-257 limits assumed): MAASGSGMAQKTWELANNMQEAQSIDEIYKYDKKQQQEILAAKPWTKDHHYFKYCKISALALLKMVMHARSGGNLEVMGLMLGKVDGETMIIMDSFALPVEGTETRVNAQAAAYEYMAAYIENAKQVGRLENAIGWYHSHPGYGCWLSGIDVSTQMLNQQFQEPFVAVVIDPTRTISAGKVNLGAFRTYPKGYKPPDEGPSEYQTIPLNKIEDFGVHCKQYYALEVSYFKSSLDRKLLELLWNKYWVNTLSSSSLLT

Question: How did the Kd turn out when “CSN6, soluble MPN domain construct of Example 2 (from UniProt Q7L5N1 31-211)” was run?
Answer: 1000 to 5000 nM
